Measured values: US20240132578A1

Tests used:
[1] = target: HIV-1 Env of isolate 92BR020 (Clade B) (HIV-1); experiment: cell-based or functional assay
[2] = target: HIV-1 Env of isolate 92UG005 (Clade D) (HIV-1); experiment: cell-based or functional assay
[3] = target: HIV-1 Env of isolate 93UG077 (Clade A) (HIV-1); experiment: cell-based or functional assay
[4] = target: JR-FL GP120 ΔV3 (HIV-1 JR-FL); experiment: ELISA, antigen-coated wells, mAb titrated; EC50 by nonlinear regression
[5] = target: HIV-1 93UG077 Env (HIV-1); experiment: cell-based or functional assay
[6] = target: HIV-1 JR-CSF Env R327A (HIV-1 isolate JR-CSF) (UniProt P20871); experiment: cell-based or functional assay
[7] = target: HIV-1 MGRM-AG-005 Env (HIV-1); experiment: cell-based or functional assay
[8] = target: HIV-1 MGRM-D-001 Env (HIV-1); experiment: cell-based or functional assay
[9] = target: HIV-1 envelope glycoprotein (Env) of isolate 94UG103 (HIV-1); experiment: cell-based or functional assay
[10] = target: HIV-1 envelope glycoprotein (Env) of isolate MG RM-A-002, subtype A (HIV-1); experiment: cell-based or functional assay
[11] = target: aMLV envelope protein (negative control pseudovirus); experiment: cell-based or functional assay
[12] = target: HIV-1 92TH021 envelope glycoprotein (Env) on pseudovirus (HIV-1); experiment: cell-based or functional assay
[13] = target: HIV-1 93IN905 envelope glycoprotein (Env) on pseudovirus (HIV-1); experiment: cell-based or functional assay
[14] = target: HIV-1 94UG103 envelope glycoprotein (Env) on pseudovirus (HIV-1); experiment: cell-based or functional assay
[15] = target: HIV-1 APV13 envelope glycoprotein (Env) on pseudovirus (HIV-1); experiment: cell-based or functional assay
[16] = target: HIV-1 JR-CSF Env N262A (HIV-1 (isolate JR-CSF)) (UniProt P20871); experiment: cell-based or functional assay
[17] = target: HIV-1 JR-CSF Env N295A (HIV-1 (isolate JR-CSF, clade B)) (UniProt P20871); experiment: cell-based or functional assay
[18] = target: HIV-1 JR-CSF Env T202A (HIV-1 (isolate JR-CSF)) (UniProt P20871); experiment: cell-based or functional assay
[19] = target: HIV-1 JR-CSF Env T388A (HIV-1 isolate JR-CSF) (UniProt P20871); experiment: cell-based or functional assay
[20] = target: HIV-1 JRCSF envelope glycoprotein (Env) on pseudovirus (HIV-1) (UniProt P20871); experiment: cell-based or functional assay
[21] = target: HIV-1 JRFL envelope glycoprotein (Env) on pseudovirus (HIV-1); experiment: cell-based or functional assay
[22] = target: HIV-1 MGRM-A-010 envelope glycoprotein (Env) on pseudovirus (HIV-1); experiment: cell-based or functional assay
[23] = target: HIV-1 MGRM-AG-005 envelope glycoprotein (Env) on pseudovirus (HIV-1); experiment: cell-based or functional assay
[24] = target: HIV-1 MGRM-C-026 envelope glycoprotein (Env) on pseudovirus (HIV-1); experiment: cell-based or functional assay
[25] = target: HIV-1 MGRM-D-018 envelope glycoprotein (Env) on pseudovirus (HIV-1); experiment: cell-based or functional assay
[26] = target: HIV-1 NL43 envelope glycoprotein (Env) on pseudovirus (HIV-1); experiment: cell-based or functional assay
[27] = target: HIV-1 JR-CSF Env T320A (HIV-1 (isolate JR-CSF, clade B)) (UniProt P20871); experiment: cell-based or functional assay
[28] = target: HIV-1 Env of isolate APV-17 (Clade B) (HIV-1); experiment: cell-based or functional assay
[29] = target: HIV-1 Env of isolate APV-6 (Clade B) (HIV-1); experiment: cell-based or functional assay
[30] = target: HIV-1 NL43 envelope protein (Env) on pseudotyped virus (HIV-1 strain NL43); experiment: cell-based or functional assay

## 2F5 (antibody)
[1]
  IC90 (neutralization of pseudovirus): > 50 µg/mL
[2]
  IC90 (neutralization of pseudovirus): > 50 µg/mL
[3]
  IC90 (neutralization of pseudovirus): 33.4 µg/mL

## 4838_L06 (PGT-121) (antibody)
[4]
  EC50: > 10 µg/mL

## 5141_B17 (PGT-126) (antibody)
[5]
  IC50, pseudovirus neutralization: 0.0256 µg/mL
[6]
  Fold IC50 increase relative to wild-type: 2.2 fold
[7]
  IC50, pseudovirus neutralization: 1.35 µg/mL
[8]
  IC50, pseudovirus neutralization: 0.0639 µg/mL
[9]
  Neutralization IC80: 0.0316 µg/mL
  Neutralization IC90: 0.0655 µg/mL
  Neutralization IC95: 0.128 µg/mL
  neutralization IC50: 0.0091 µg/mL
[10]
  IC50, pseudovirus neutralization: 0.015 µg/mL
[11]
  Neutralization IC80: > 10 µg/mL
  Neutralization IC90: > 10 µg/mL
  Neutralization IC95: > 10 µg/mL
  neutralization IC50: > 10 µg/mL

## 5343_B08 (PGT-135) (antibody)
[12]
  Neutralization IC80: > 10 µg/mL
  Neutralization IC90: > 10 µg/mL
  Neutralization IC95: > 10 µg/mL
  neutralization IC50: > 10 µg/mL
[13]
  Neutralization IC80: 0.0648 µg/mL
  Neutralization IC90: 0.136 µg/mL
  Neutralization IC95: 0.268 µg/mL
  neutralization IC50: 0.0183 µg/mL
[14]
  Neutralization IC80: > 10 µg/mL
  Neutralization IC90: > 10 µg/mL
  Neutralization IC95: > 10 µg/mL
  neutralization IC50: > 10 µg/mL
[15]
  Neutralization IC80: > 10 µg/mL
  Neutralization IC90: > 10 µg/mL
  Neutralization IC95: > 10 µg/mL
  neutralization IC50: 0.545 µg/mL
[16]
  Fold IC50 increase relative to wild-type: 2.1 fold
[17]
  Fold IC50 increase relative to wild-type: > 18 fold
[6]
  Fold IC50 increase relative to wild-type: 0.67 fold
[18]
  Fold IC50 increase relative to wild-type: 1.8 fold
[19]
  Fold IC50 increase relative to wild-type: 0.1 fold
[20]
  Neutralization IC80: 0.503 µg/mL
  Neutralization IC90: 1.47 µg/mL
  Neutralization IC95: 8.3 µg/mL
  neutralization IC50: 0.113 µg/mL
[21]
  Neutralization IC80: > 10 µg/mL
  Neutralization IC90: > 10 µg/mL
  Neutralization IC95: > 10 µg/mL
  neutralization IC50: > 10 µg/mL
[22]
  Neutralization IC80: > 10 µg/mL
  Neutralization IC90: > 10 µg/mL
  Neutralization IC95: > 10 µg/mL
  neutralization IC50: > 10 µg/mL
[23]
  Neutralization IC80: > 10 µg/mL
  Neutralization IC90: > 10 µg/mL
  Neutralization IC95: > 10 µg/mL
  neutralization IC50: > 10 µg/mL
[24]
  Neutralization IC80: 0.0562 µg/mL
  Neutralization IC90: 0.139 µg/mL
  Neutralization IC95: 0.331 µg/mL
  neutralization IC50: 0.0123 µg/mL
[25]
  Neutralization IC80: 0.2 µg/mL
  Neutralization IC90: > 10 µg/mL
  Neutralization IC95: > 10 µg/mL
  neutralization IC50: 0.0433 µg/mL
[26]
  Neutralization IC80: > 10 µg/mL
  Neutralization IC90: > 10 µg/mL
  Neutralization IC95: > 10 µg/mL
  neutralization IC50: 6.79 µg/mL
[4]
  EC50: 0.2 µg/mL

## 5145_B14 (PGT-127) (antibody)
[17]
  Fold IC50 increase relative to wild-type: 2.3 fold
[6]
  Fold IC50 increase relative to wild-type: 1.8 fold
[18]
  Fold IC50 increase relative to wild-type: 1.8 fold
[27]
  Fold IC50 increase relative to wild-type: 1.8 fold
[19]
  Fold IC50 increase relative to wild-type: 0.5 fold
[10]
  IC50, pseudovirus neutralization: 9.42 µg/mL

## 4877_D15 (PGT-122) (antibody)
[5]
  IC50, pseudovirus neutralization: 0.191 µg/mL
[7]
  IC50, pseudovirus neutralization: > 10 µg/mL
[8]
  IC50, pseudovirus neutralization: 0.867 µg/mL
[10]
  IC50, pseudovirus neutralization: 0.017 µg/mL

## 1443_C16 (PG16) (TCN-116) (antibody)
[1]
  IC90 (neutralization of pseudovirus): > 50 µg/mL
[2]
  IC90 (neutralization of pseudovirus): > 50 µg/mL
[3]
  IC90 (neutralization of pseudovirus): > 50 µg/mL
[28]
  IC90 (neutralization of pseudovirus): > 50 µg/mL
[29]
  IC90 (neutralization of pseudovirus): 44.3 µg/mL
[30]
  IC50, Neutralizing Antibody Assay, Virus/Ab Incubation 1 hour: < 0.0025 µg/mL
  IC50, Neutralizing Antibody Assay, Virus/Ab Incubation 18 hour: 4.99 µg/mL

## 5147_N06 (PGT-130) (antibody)
[5]
  IC50, pseudovirus neutralization: > 10 µg/mL
[16]
  Fold IC50 increase relative to wild-type: 0.7 fold
[17]
  Fold IC50 increase relative to wild-type: 0.7 fold
[7]
  IC50, pseudovirus neutralization: 0.947 µg/mL
[8]
  IC50, pseudovirus neutralization: > 10 µg/mL

## 5136_H01 (PGT-131) (antibody)
[17]
  Fold IC50 increase relative to wild-type: 2.1 fold
[6]
  Fold IC50 increase relative to wild-type: 19 fold
[18]
  Fold IC50 increase relative to wild-type: 2.7 fold
[27]
  Fold IC50 increase relative to wild-type: 4.5 fold

## 5345_I01 (PGT-137) (antibody)
[4]
  EC50: 0.1 µg/mL

## 5123_A06 (PGT-125) (antibody)
[5]
  IC50, pseudovirus neutralization: 0.0262 µg/mL
[17]
  Fold IC50 increase relative to wild-type: 0.8 fold
[18]
  Fold IC50 increase relative to wild-type: 0.8 fold
[27]
  Fold IC50 increase relative to wild-type: 0.8 fold
[7]
  IC50, pseudovirus neutralization: > 10 µg/mL
[8]
  IC50, pseudovirus neutralization: 2.31 µg/mL
[10]
  IC50, pseudovirus neutralization: 0.013 µg/mL
